Data: the supplement of paper PMC10567573

B1: ATL3 (parent)
chain: FSFRYQQELEEEIKELYENFCKHN

Variants of: B1
Experiment: protein stability index of a GFP-peptide fusion (GPS, HEK-293T) (PSI 1-6); higher = more stable
Settings: c terminus: a fixed tail appended
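Further: lentivirally expressed fusions sorted by FACS into six bins by GFP to DsRed ratio, PSI derived from sequencing read proportions per bin multiplied by bin number.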

Protein stability index of substitutions, site by site:
L16: S 2.79 | M 3.39 | V 2.28 | Q 4.14 | K 3.02 | W 2.03 | N 2.86 | I 2.59 | Y 2.13 | F 2.62 | C 2.42 | P 3 | T 2.5 | R 2.71 | H 3.48 | D 3.13 | A 2.56 | G 3.3 | E 3.18
K14: N 2.31 | I 1.62 | T 2.29 | D 2.81 | Y 1.62 | R 2.72 | L 1.49 | G 2.37 | W 2.73 | Q 2.39 | P 2.05 | S 1.66 | F 1.87 | C 2.15 | H 2.28 | E 2.53 | M 1.53 | V 2.17 | A 2.33
E8: R 1.65 | V 1.46 | Y 1.79 | G 2.68 | T 1.79 | K 1.69 | H 2.27 | F 1.89 | M 1.97 | A 1.91 | I 1.72 | P 2.02 | W 2.09 | N 2.44 | S 1.89 | Q 2.02 | C 2.11 | L 2.1
E12: S 2.03 | H 2.29 | T 1.79 | R 1.76 | I 2.07 | P 2.17 | A 1.97 | Q 2.53 | K 2.27 | G 2.1 | V 2.08 | M 1.76 | C 1.76 | L 2.74 | N 2.09 | W 2.04 | D 2.84 | F 1.91 | Y 2.06
E11: Q 2.18 | N 2.69 | T 2.74 | I 2.11 | C 1.61 | Y 1.6 | D 2.38 | F 1.45 | R 1.98 | A 2.76 | M 2.37 | L 1.58 | P 2.25 | W 1.8 | V 1.53 | H 2.29 | G 2.21 | S 2.58 | K 2.55
Q6: H 2.03 | R 2.03 | F 2.1 | A 2.21 | L 2.19 | V 2.11 | D 2.35 | I 1.57 | N 2.06 | G 2.67 | E 2.16 | W 1.51 | C 2.38 | T 2.04 | S 2 | P 2.09 | Y 2.24 | K 2.26 | M 2.08
E15: T 1.83 | C 1.67 | L 1.96 | A 1.38 | H 2.15 | R 2.06 | F 1.56 | M 1.39 | S 2.03 | Q 1.91 | P 1.59 | K 2.96 | D 2.59 | Y 1.8 | I 1.71 | N 1.75 | V 2.33 | G 1.56 | W 2.29
L9: C 3.22 | M 2.65 | D 3.2 | A 2.6 | I 2.5 | G 2.75 | K 2.68 | S 2.41 | W 2.66 | T 3.48 | V 2.11 | H 3.64 | E 2.11 | R 3.33 | Q 3.09 | F 2.16 | Y 2.24 | P 2.63 | N 2.81
Y5: I 2.77 | K 2.93 | V 1.93 | D 3.55 | T 3.09 | F 2.5 | P 3.45 | L 2.13 | S 3.35 | E 3.07 | W 2.21 | Q 2.63 | R 3.56 | C 2.44 | A 3.51 | H 2.84 | N 3.29 | M 3.4
F20: E 3.58 | K 2.81 | D 2.62 | V 2.02 | I 1.71 | T 2.41 | R 2.8 | H 2.73 | N 2.61 | P 2.5 | A 2.83 | Q 2.55 | M 2.17 | C 2.66 | S 3.01 | G 2.81 | L 2.19
E10: T 2.37 | L 1.6 | Y 1.75 | C 1.77 | S 2.23 | P 2.61 | K 2.2 | A 2.02 | M 1.75 | W 2.02 | D 3.31 | R 1.78 | Q 2 | V 1.47 | N 2.13 | F 2.06 | I 1.46 | G 1.9 | H 1.81
F3: H 3.23 | E 3.04 | L 2.7 | T 3.23 | Y 2.01 | K 2.09 | Q 4.39 | G 3.15 | R 2.83 | N 2.85 | V 2.51 | M 2.96 | P 3.79 | W 2.82 | I 2.52 | S 2.79
I13: L 1.99 | Y 2.83 | T 2.91 | R 2.53 | F 2.66 | S 2.17 | H 2.82 | M 2.65 | P 2.45 | K 2.79 | V 2.07 | G 2.29 | E 2.9 | D 2.69 | A 2.31 | C 3.79 | W 2.66 | Q 2.19 | N 2.46
Y17: D 2.92 | W 2.48 | G 4.22 | P 4.27 | K 2.89 | A 3.16 | Q 4.02 | N 3.09 | E 3.97 | R 2.73 | M 2.68 | L 2.36 | I 2.92 | V 3.33 | T 3.76 | H 3.05 | C 3.09 | F 2.16 | S 3.49
N19: W 1.73 | R 2.31 | G 1.73 | C 2.02 | T 1.99 | D 1.44 | S 2.41 | M 1.66 | F 1.72 | Q 2.04 | L 1.98 | I 2.04 | Y 1.89 | K 1.92 | E 2.06 | A 2.28 | P 2.16 | V 1.81 | H 1.97
Q7: P 3.07 | I 1.75 | S 2.24 | D 2.35 | L 1.92 | Y 2.91 | V 2.17 | W 1.84 | A 2.04 | H 2.2 | N 2.51 | E 2.64 | C 2.15 | F 1.65 | G 3.13 | M 2.39 | R 2.3 | T 2.59 | K 2.46
E18: L 1.55 | H 1.89 | I 2.28 | W 1.34 | N 2.15 | S 1.91 | Q 1.8 | D 2.6 | C 1.57 | M 2.27 | Y 2.15 | V 3.55 | R 1.96 | A 2.19 | K 1.72 | T 2.52 | F 1.21 | P 1.77
R4: Q 2.82 | A 2.05 | E 2.63 | H 2.9 | G 2.88 | K 2.33 | M 1.96 | T 2.02 | P 2.87 | F 2.45 | D 3.13 | W 1.61 | I 1.87 | C 2.23 | N 2.96 | V 2.36 | Y 2.11 | L 2.09 | S 2.1
